Substrate in data set [1]: CC(C)(COP(=O)(O)OP(=O)(O)OC[C@H]1O[C@@H](n2cnc3c(N)ncnc32)[C@H](O)[C@@H]1OP(=O)(O)O)[C@@H](O)C(=O)NCCC(=O)NCCSC(=O)c1ccc(F)cc1
The experiment in a line: continuous spectrophotometric assay, dithionite-reduced methyl viologen as electron donor. Format: biochemical, Thauera aromatica. The settings on record: ATP-dependent, 30°C, enriched enzyme.

Substrate in data set [2]: CC(C)(COP(=O)(O)OP(=O)(O)OC[C@H]1O[C@@H](n2cnc3c(N)ncnc32)[C@H](O)[C@@H]1OP(=O)(O)O)[C@@H](O)C(=O)NCCC(=O)NCCSC(=O)c1ccccc1
Described as above. The note with it: ATP-dependent, 30°C, enriched enzyme. Format: biochemical, Thauera aromatica.

Data on one protein can be found in PMC4992971, “ATP-Dependent C–F Bond Cleavage Allows the Complete Degradation of 4-Fluoroaromatics without Oxygen” (mBio, 2016).

B1: 4-F-BCR / class I benzoyl-CoA reductase (BCR, BcrABCD) (Thauera aromatica) (protein)
chain 1: SAKTNPEVIKESSMVKQKEMIAGNYDRLTGTKESGEKVVSTFVPGNLNELIMCFDMVNNLPETNAIQNGMRKQSGGMIMDAEKAGHSEDVCTYVKADIGMMGRGNIAPNGKPMPAPDMLLLSYTGCFTFMKWFELLRHEYKCPTVMLQIPYQGDGKITKNMRDFVVKQLKEEVIPMFEQVSGVKFDIDRLREYLKNSAKAEDDLVWVLESAKNRPSPIDAYFGGVYYIGPMFTAFRGTADAVEYYGLLRGEIEQRIREGKGPITPEGDMKEEKYRLVVEGPPNWTSFREFWKLFYDEGAVVVASSYTKVGGLYDQGFRHDPNDPLGTLADYCLGCYTNNNLPQRVELLEKYMNEYQADGLLINSIKSCNSFSAGQLLMMREIEKRTGKPAAFIETDLVDPRYFSHANVKNRLESYFQMVDQKRSGASLATA
chain 2: STADIIARCEALYEDLDFTAARQWKEADPSRKVIAYMPVYVPREIIHAAGMLPLGIMGGGDGLEVIHGDAFYQSYICRIPRSTIELGLSKRMDFVDGMLFPSICDVIRNLSGMWKLMFPGKYVRYFDVPQNYRDDVGGNYYTAELNELREGLEHLSGRKITDDALRASIKVYNENRKLVQDVYGLRSREPWKVPSADVYLLMRAGLVLPVEEHNQMLKDYLAAAVKVEAQKRDNCRVIINGSFCEQPPLNLIKSIELSGCYIVDDDYMIVHRFLRNEVSTAGDPMQNLSLAFLHESISTAAKYDDKEEDKGKYLLEQVRTNAAEGVIFAAPSFCDPALLERPMLADRCSENKVPYISFKYAENSGQMQPIREQAGTFADSIKLWS
notes: native enzyme enriched from 4-fluorobenzoate-grown cells, heterotetramer of four subunits BcrABCD, no tag; with Benzoyl-CoA reductase subunit A; Benzoyl-CoA reductase subunit D
With B1, the Michaelis-Menten constant (Km) is given as 97 µM in data set [1] and 43 µM in data set [2].

As a reminder, the Km is the concentration of substrate that gives half-maximal velocity.
